To fix the notation:
B1: Pistol ribozyme (parent)
chain: GGGUCGUUGUUCCAUAAUCGCGUGGAUAUGGCACGCAAGUUUCUACCGGGCACCGUAAAUGUCCGACUGGAGCCGUUCGGGCGGCUAUAAACAGACCUCAGGCCCGAAGCGUGGCGGCACCUGCCGCCGGUGGUAAAAAAGAUCGGAAGAGCACACGUCU

Variants of B1 are the subject of this data set. Description: aptazyme ON/OFF ratio, guanine; higher = stronger switching; co-transcriptional cleavage with and without guanine.
Turning to U7C U8C U10A U11C C12G C13A, the “aptazyme ON/OFF ratio” value came to 1.22.
With U7C U8C G9U U10G U11C C12A C13U the figure was 1.1; with U7C U8C G9U U10G U11C C12A C13A, 1.18.
Turning to U7C U8C G9U U10G U11C C12A C13G, the “aptazyme ON/OFF ratio” value came to 1.07.
Consider U7C U8C U10G U11C C12U C13U, for which the “aptazyme ON/OFF ratio” value turned out to be 1.29.
The value for U7C U8C U10G U11C C12U C13A was 1.2; that for U7C U8C U10G U11C C12U C13G was 1.11.
As to U7C U8C G9U U10C U11A C12A C13A, the “aptazyme ON/OFF ratio” value stood at 1.17.
U7C U8C G9U U10C U11A C12A C13G: the “aptazyme ON/OFF ratio” value was determined as 1.17.
Regarding U7C U8C G9U U10C U11A C12A C13U, the “aptazyme ON/OFF ratio” value is 1.09.
In the case of U7C U8C G9U U11G, the “aptazyme ON/OFF ratio” value was 1.16.
For the variant U7C U8C G9U U11A, the “aptazyme ON/OFF ratio” value came to 1.64.
The value for U7C U8C G9U U11C was 1.1; that for U7C U8C G9U U10C U11G was 1.32; that for U7C U8C G9U U10C U11C was 1.3.
With U7C U8C U10G U11C C12G C13A the figure was 1.17.
In the case of U7C U8C U10G U11C C12G C13G, the “aptazyme ON/OFF ratio” value stood at 1.13.
U7C U8C U10G U11C C12G C13U: the “aptazyme ON/OFF ratio” value was 1.17.
With U7C U8C U10A C12U C13A the figure was 1.06.
On to U7C U8C U10A C12U C13G, for which the “aptazyme ON/OFF ratio” value was 1.06.
On to U7C U8C U10A C12U C13U, for which the “aptazyme ON/OFF ratio” value stood at 1.03.
With U7C U8C U10G C13U the figure was 1.12; with U7C U8C U10G C13A, 1.13.
The value for U7C U8C U10G C13G was 1.08; that for U7C U8C G9U U10C U11A C12G was 1.34.
For the variant U7C U8C G9U U10C U11A C12A, the “aptazyme ON/OFF ratio” value is 1.26.
As to U7C U8C G9U U10C U11A C12U, the “aptazyme ON/OFF ratio” value came to 1.26.
As for U7C U8C G9U U11A C13U, the “aptazyme ON/OFF ratio” value was 1.15.
On to U7C U8C G9U U11A C13G, for which the “aptazyme ON/OFF ratio” value was determined as 1.07.
Turning to U7C U8C G9U U11A C13A, the “aptazyme ON/OFF ratio” value amounted to 1.17.
Turning to U7C U8C U10A U11A C12A C13U, the “aptazyme ON/OFF ratio” value was 1.13.
U7C U8C U10A U11A C12A C13A: the “aptazyme ON/OFF ratio” value is 1.1.
For U7C U8C U10A U11A C12A C13G, the “aptazyme ON/OFF ratio” value was 1.11.
With U7C U8C G9U U10G U11A C12A the figure was 1.37; with U7C U8C G9U U10G U11A C12U, 1.17.
As to U7C U8C G9U U10G U11A C12G, the “aptazyme ON/OFF ratio” value is 1.25.
Take U7C U8C G9U U10C U11G C12G: the “aptazyme ON/OFF ratio” value was found to be 1.16.
The value for U7C U8C G9U U10C U11G C12A was 1.16; that for U7C U8C G9U U10C U11G C12U was 1.22.
For the variant U7C U8C U10G U11C C12A C13U, the “aptazyme ON/OFF ratio” value amounted to 1.15.
Regarding U7C U8C U10G U11C C12A C13G, the “aptazyme ON/OFF ratio” value was determined as 1.11.
Consider U7C U8C U10G U11C C12A C13A, for which the “aptazyme ON/OFF ratio” value worked out at 1.16.
The value for U7C U8C U10C U11C C12G C13G was 1.3; that for U7C U8C U10C U11C C12G C13U was 1.31; that for U7C U8C U10C U11C C12G C13A was 1.1.
For the variant U7C U8C G9U U10G C12G C13U, the “aptazyme ON/OFF ratio” value was 1.09.
In the case of U7C U8C G9U U10G C12G C13G, the “aptazyme ON/OFF ratio” value turned out to be 1.07.
The value for U7C U8C G9U U10G C12G C13A was 1.09; that for U7C U8C U10A U11G C12G C13A was 1.25.
In the case of U7C U8C U10A U11G C12G C13U, the “aptazyme ON/OFF ratio” value worked out at 1.14.
With U7C U8C U10A U11G C12G C13G the figure was 1.22.
On to U7C U8C U10C U11G C12G C13U, for which the “aptazyme ON/OFF ratio” value is 1.1.
Regarding U7C U8C U10C U11G C12G C13A, the “aptazyme ON/OFF ratio” value turned out to be 1.15.
U7C U8C U10C U11G C12G C13G: the “aptazyme ON/OFF ratio” value worked out at 1.13.
Consider U7C U8C U10A U11C C13U, for which the “aptazyme ON/OFF ratio” value is 1.03.
Regarding U7C U8C U10A U11C C13G, the “aptazyme ON/OFF ratio” value was found to be 1.1.
Take U7C U8C U10A U11C C13A: the “aptazyme ON/OFF ratio” value came to 1.07.
Take U7C U8C G9U U10C U11G C12U C13G: the “aptazyme ON/OFF ratio” value turned out to be 1.19.
In the case of U7C U8C G9U U10C U11G C12U C13A, the “aptazyme ON/OFF ratio” value stood at 1.09.
With U7C U8C G9U U10C U11G C12U C13U, the “aptazyme ON/OFF ratio” value came out at 1.21.
With U7C U8C U10A U11C C12U C13G, the “aptazyme ON/OFF ratio” value is 1.1.
U7C U8C U10A U11C C12U C13A: the “aptazyme ON/OFF ratio” value stood at 1.08.
Take U7C U8C U10A U11C C12U C13U: the “aptazyme ON/OFF ratio” value turned out to be 1.07.
Regarding U7C U8C U10G U11A C12U C13G, the “aptazyme ON/OFF ratio” value stood at 1.1.
As for U7C U8C U10G U11A C12U C13A, the “aptazyme ON/OFF ratio” value was found to be 1.16.
Consider U7C U8C U10G U11A C12U C13U, for which the “aptazyme ON/OFF ratio” value was 1.21.
As to U7C U8C U10A U11G C12U C13U, the “aptazyme ON/OFF ratio” value came to 1.15.
For U7C U8C U10A U11G C12U C13G, the “aptazyme ON/OFF ratio” value amounted to 1.15.
With U7C U8C U10A U11G C12U C13A the figure was 1.11; with U7C U8C G9U U11C C13A, 1.02.
As to U7C U8C G9U U11C C13G, the “aptazyme ON/OFF ratio” value was found to be 1.02.
Turning to U7C U8C G9U U11C C13U, the “aptazyme ON/OFF ratio” value was 1.02.
U7C U8C U10C U11G C12U C13A: the “aptazyme ON/OFF ratio” value worked out at 1.28.
The value for U7C U8C U10C U11G C12U C13U was 1.3.
As to U7C U8C U10C U11G C12U C13G, the “aptazyme ON/OFF ratio” value worked out at 1.23.
As to U7C U8C U10G C12A, the “aptazyme ON/OFF ratio” value was 1.13.
Consider U7C U8C U10G C12U, for which the “aptazyme ON/OFF ratio” value was determined as 1.11.
With U7C U8C U10G C12G the figure was 1.12; with U7C U8C U10A C12G C13A, 1.12; with U7C U8C U10A C12G C13U, 1.07.
Regarding U7C U8C U10A C12G C13G, the “aptazyme ON/OFF ratio” value is 1.12.
Turning to U7C U8C U10C U11G C12U, the “aptazyme ON/OFF ratio” value was determined as 1.2.
Turning to U7C U8C U10C U11G C12G, the “aptazyme ON/OFF ratio” value stood at 1.18.

Source of the values: the RNAGym collection of RNA variant scans (doi:10.1021/acssynbio.7b00057).
